Substitutions are numbered along the chain they refer to. In names and notes the source's numbering stands.
T1: monomeric cynomolgus monkey CSF1R ectodomain protein (cynomolgus monkey, UniProt P07333 20-517 (human entry))
T1 construct: also called monomeric cyno CSF1R; Cyno CSF1R
T1 chain: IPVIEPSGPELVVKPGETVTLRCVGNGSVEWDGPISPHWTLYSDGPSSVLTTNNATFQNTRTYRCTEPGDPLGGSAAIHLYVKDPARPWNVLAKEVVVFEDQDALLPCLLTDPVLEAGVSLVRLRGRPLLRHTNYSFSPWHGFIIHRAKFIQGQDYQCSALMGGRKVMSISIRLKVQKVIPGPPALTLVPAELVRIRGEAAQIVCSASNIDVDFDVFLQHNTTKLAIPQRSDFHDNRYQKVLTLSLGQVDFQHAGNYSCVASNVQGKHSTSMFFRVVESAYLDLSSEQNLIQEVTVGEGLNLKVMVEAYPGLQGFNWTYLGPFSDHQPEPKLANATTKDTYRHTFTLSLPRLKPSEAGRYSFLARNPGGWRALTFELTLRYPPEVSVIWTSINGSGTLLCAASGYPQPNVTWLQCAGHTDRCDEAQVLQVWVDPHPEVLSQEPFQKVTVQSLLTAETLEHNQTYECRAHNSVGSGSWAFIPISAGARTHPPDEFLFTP

T2: cynomolgus monkey CSF1R human Fc tagged recombinant protein (cynomolgus monkey, UniProt P07333 20-517 (human entry), limits assumed)
T2 construct: also called cyno CSF1R-Fc
T2 chain: T1 chain

B1: MH13 (antibody, human IgG4, V domains shown)
VH: QVQLVQSGAEVKKPGSSVKVSCKASGYTFSSNYMIWVRQAPGQGLEWMGDINPYNGGANYAQKFQGRVTITADESTSTAYMELSSLRSEDTAVYYCAREGPYFSNLYVMDYWGQGTLVTVSS
VL: EIVLTQSPATLSLSPGERATLSCRASQSVSYEGENYLNWYQQKPGQAPRLLIYAASNRATGIPARFSGSGSGTDFTLTISSPEPEDFAVYYCQLSNEDLLTFGGGTKVEIK
notes: Deimmunized MH5 derivative, human IgG4(S228P)/Ckappa IgG
B2: MH33 (antibody, human IgG4, V domains shown)
VH: B1 VH with N32A, Q114R
VL: B1 VL
notes: as for B1
B3: murine anti-CSF1R antibody 0301 (mu0301), v-domains in human IgG4(S228P) format (antibody, V domains shown)
VH: EVQLQQSGPELVRPGASVKMSCKASGYTFTDNYMIWVKQSHGKSLEWIGDINPYNGGTTFNQKFKGKATLTVEKSSSTAYMQLNSLTSEDSAVYYCARESPYFSNLYVMDYWGQGTSVTVSS
VL: NIVLTQSPASLAVSLGQRATISCKASQSVDYDGDNYMNWYQQKPGQPPKLLIYAASNLESGIPARFSGSGSGTDFTLNIHPVEEEDAATYYCHLSNEDLSTFGGGTKLEIK
B4: humanized anti-CSF1R antibody 0301 (hu0301) (antibody, human IgG4, V domains shown)
VH: B1 VH with S30T, S31D, A58T, N59T, Y60F, A61N, Q65K, E74K, G100S
VL: EIVLTQSPATLSLSPGERATLSCKASQSVDYDGDNYMNWYQQKPGQAPRLLIYAASNLESGIPARFSGSGSGTDFTLTISSLEPEDFAVYYCHLSNEDLSTFGGGTKVEIK
notes: also called mAb-1
B5: 26B07 (antibody, human IgG4, V domains shown)
VH: B1 VH with N32Y
VL: B1 VL with S30E, E32Q, E34D, P82L
notes: Library-derived clone, tested as human IgG4(S228P)/Ckappa IgG; framework residue limits counted on the grafts
B6: 29D10 (antibody, human IgG4, V domains shown)
VH: B1 VH with S30T, N32Y, Y60F
VL: B1 VL with P82L
notes: as for B5
B7: 29H09 (antibody, human IgG4, V domains shown)
VH: B1 VH with S30T, N32Y
VL: B1 VL with P82L
notes: as for B5
B8: 30E06 (antibody, human IgG4, V domains shown)
VH: B1 VH with S30T, N32Y, A58T, N59T
VL: B1 VL with N38A, R58L, P82L
notes: Library-derived clone; tested as human IgG4(S228P) / human Ckappa IgG; also called 30E6; mAb-3

Each binder was assayed against T3, monomeric human CSF1R ectodomain protein (human, UniProt P07333 20-517) (assay: SPR Biacore, IgG captured, monomeric CSF1R analyte).
T3 construct: also called biotinylated monomeric human CSF1R
Experimental: (§1) Affinity (KD) of purified IgGs was determined via SPR with antigen in-solution on a Biacore 3000 (GE). A mouse anti-human antibody (CH1 specific) was immobilized on a CM5 Sensor Chip to a level of 2000 RU in acetate buffer at pH 4.5 using amine coupling following the Wizard instructions for two channels. One channel was used for background signal correction. The standard running buffer HBS-EP pH 7.4 was used. Regeneration was performed with a single injection of 10 μl of 10 mM Glycine at pH 1.5 at 20 μl/minute. IgG samples were injected for 2 minutes at 50 nM at 30 μl/min followed by and off-rate of 60 seconds. The monomeric ectodomain protein (human CSF1R or cynomolgus monkey CSF1R) was injected in two fold serial dilutions from 100 nM down to 3.1 nM, for 2 minutes at 30 μl/min followed by an off-rate of 300 seconds. The obtained sensorgrams were analysed using the Biacore 3000 evaluation (BIAevaluation) software. The KD was calculated by simultaneous fitting of the association and dissociation phases to a 1:1 Langmuir binding model.

Kd	fold of the affinity of hu0301	koff	kon	Binder
0.397 nM	≤ 2 fold	0.000673 s⁻¹	1.69e+06 M⁻¹ s⁻¹	B1
1.09 nM	–	0.00144 s⁻¹	1.32e+06 M⁻¹ s⁻¹	B2
0.024 nM	–	6.9e-05 s⁻¹	2.9e+06 M⁻¹ s⁻¹	B3
0.21 nM	–	0.00047 s⁻¹	2.3e+06 M⁻¹ s⁻¹	B4

Target: T1, monomeric cynomolgus monkey CSF1R …
Assay: SPR Biacore, IgG captured, monomeric CSF1R analyte
Experimental: as §1

Kd	fold of the affinity of hu0301	koff	kon	Binder
0.723 nM	≤ 2 fold	0.000598 s⁻¹	827000 M⁻¹ s⁻¹	B1
1.74 nM	–	0.00115 s⁻¹	660000 M⁻¹ s⁻¹	B2
0.1 nM	–	7.4e-05 s⁻¹	740000 M⁻¹ s⁻¹	B3
0.66 nM	–	0.00033 s⁻¹	500000 M⁻¹ s⁻¹	B4

Each binder was assayed against T4, human CSF1R, membrane-presented on cells (human, UniProt P07333 20-972) (assay: flow cytometry on HEK-293 cells expressing human CSF1R, MFI).
T4 construct: HEK-293 cells transiently transfected with human CSF1R (flow cytometry); the native receptor on primary human monocytes in the proliferation assay; also called human CSF1R+ HEK-293 cells; CSF1R on primary human CD14+ monocytes

EC50 (read off the curve)	Binder
~1 nM	B1
~0.7 nM	B2
~1 nM	B3

Target: T3, monomeric human CSF1R ectodomain protein
Assay: SPR Biacore, IgG captured, monomeric CSF1R analyte
Remark: another data set of the same source
Experimental: as §1
(§2) Biacore analyses of binding affinity were performed for all IgGs to solution-phase, monomeric human and cyno CSF1R proteins (Table 6). […] Affinity differentials of less than 3-fold between human and cyno target orthologs are highly beneficial in pre-clinical drug development analyses as they allow more accurate design and interpretation of e.g. monkey safety, PK and PD modelling experiments.

Kd	koff	kon	Binder
0.29 nM	0.00042 s⁻¹	1.5e+06 M⁻¹ s⁻¹	B5
0.2 nM	0.00037 s⁻¹	1.9e+06 M⁻¹ s⁻¹	B6
0.19 nM	0.00034 s⁻¹	1.8e+06 M⁻¹ s⁻¹	B7
0.11 nM	0.00019 s⁻¹	1.9e+06 M⁻¹ s⁻¹	B8
0.024 nM	6.9e-05 s⁻¹	2.9e+06 M⁻¹ s⁻¹	B3
0.21 nM	0.00047 s⁻¹	2.3e+06 M⁻¹ s⁻¹	B4

Target: T1, monomeric cynomolgus monkey CSF1R …
Assay: SPR Biacore, IgG captured, monomeric CSF1R analyte
Remark: another data set of the same source
Experimental: as §1, §2

Kd	koff	kon	Binder
0.85 nM	0.00026 s⁻¹	310000 M⁻¹ s⁻¹	B5
0.42 nM	0.00022 s⁻¹	520000 M⁻¹ s⁻¹	B6
0.42 nM	0.00023 s⁻¹	550000 M⁻¹ s⁻¹	B7
0.25 nM	0.00014 s⁻¹	570000 M⁻¹ s⁻¹	B8
0.1 nM	7.4e-05 s⁻¹	740000 M⁻¹ s⁻¹	B3
0.66 nM	0.00033 s⁻¹	500000 M⁻¹ s⁻¹	B4

These binders were tested against T5, human CSF1R human Fc tagged recombinant protein (human, UniProt P07333 20-517) (assay: direct titration ELISA on coated human CSF1R-Fc, IgG4(S228P) format, OD 450 nm).
T5 construct: also called human CSF1R-Fc
Experimental: (§3) Binding and cross-reactivity of the lead panel to the recombinant proteins was initially assessed by binding ELISA. The human CSF1R human Fc tagged recombinant protein and the cynomolgus monkey CSF1R human Fc tagged recombinant protein were coated to the surface of MaxiSorp™ flat-bottom 96 well plate at 1 μg/ml. The purified IgG samples were titrated in two fold serial dilutions starting from 500 nM to 0.008 nM and allowed to bind to the coated antigens. The Fabs were detected using mouse anti-c-myc antibody followed by donkey anti-mouse IgG conjugated to horseradish peroxidase. The IgGs were detected using the mouse anti-human IgG conjugated to horseradish peroxidase. Binding signals were visualized with 3,3′,5,5′-Tetramethylbenzidine Substrate Solution (TMB) and the absorbance measured at 450 nm.

EC50 (read off the curve)	Binder
~0.1 nM	B3

Target: T4, human CSF1R, membrane-presented on cells
Assay: flow cytometry on HEK-293 cells expressing human CSF1R, MFI
Remark: another data set of the same source

EC50 (read off the curve)	Binder
~1 nM	B5
~1 nM	B4

Target: T5, human CSF1R human Fc tagged recombinant …
Assay: direct titration ELISA on coated human CSF1R-Fc, IgG4(S228P) format, OD 450 nm
Remark: another data set of the same source
Experimental: as §3

EC50 (read off the curve)	Binder
~0.08 nM	B5
~0.1 nM	B3

These binders were tested against T3, monomeric human CSF1R ectodomain protein (assay: AlphaScreen competition with mu0301 IgG4(S228P) for biotinylated monomeric human CSF1R).
Experimental: The AlphaScreen assay (Perkin Elmer) was performed in a 25 μl final volume in 384-well white microtiter plates (Greiner). The reaction buffer contained 1×PBS pH 7.3 (Oxoid, Cat. nr. BR0014G) and 0.05% (v/v) Tween® 20 (Sigma, Cat. nr. P9416). Purified IgG samples were titrated in three fold serial dilutions starting at 500 nM final concentration and incubated with biotinylated human CSF1R for 20 minutes at room temperature. […] The emission of light was measured in the EnVision multilabel plate reader (Perkin Elmer) and analysed using the EnVision manager software. Values were reported as Counts Per Second (CPS) and corrected for crosstalk. The EC50 values were calculated using the […] in GraphPad Prism software (GraphPad Software, La Jolla, Calif.).

IC50	Binder
2.56 nM	B5
1.93 nM	B6
2.16 nM	B7
1.53 nM	B8
1.29 nM	B3
2.38 nM	B4

Target: T1, monomeric cynomolgus monkey CSF1R …
Assay: SPR Biacore; KD on monomeric cyno CSF1R against KD of the same antibody on monomeric human CSF1R as reference
Experimental: as §1

human/cyno affinity differential	Binder
> 3 fold	B4

Target: T2, cynomolgus monkey CSF1R human Fc tagged …
Assay: direct titration ELISA on coated cyno CSF1R-Fc, IgG4(S228P) format, OD 450 nm
Experimental: as §3

EC50 (read off the curve)	Binder
~0.09 nM	B5
~0.08 nM	B4

Each binder was assayed against T6, human insulin (human, UniProt P01308 25-54; P01308 90-110, limits assumed) (assay: ELISA on human insulin (development risk, polyreactivity), binding score).
T6 construct: Coated antigen of the polyreactivity ('PK-risk indicator') ELISA
T6 sequence (P01308 25-54 limits assumed, chain 1 of 2): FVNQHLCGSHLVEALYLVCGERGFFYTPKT
T6 sequence (P01308 90-110 limits assumed, chain 2 of 2): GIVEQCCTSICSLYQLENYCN

binding result	Binder
no binding	B1
no binding	B2
no binding	B3
no binding	B4

Target: T2, cynomolgus monkey CSF1R human Fc tagged …
Assay: direct titration ELISA on coated cyno CSF1R-Fc, IgG4(S228P) format, OD 450 nm
Remark: another data set of the same source
Experimental: as §3

EC50 (read off the curve)	Binder
~0.2 nM	B3
~0.07 nM	B4

Target: T1, monomeric cynomolgus monkey CSF1R …
Assay: SPR Biacore; KD on monomeric cyno CSF1R against KD of the same clone on monomeric human CSF1R as reference
Experimental: as §1

human/cyno affinity differential	Binder
< 3 fold	B6
< 3 fold	B7
< 3 fold	B8

— patent publication US20210301026A1 (ULTRAHUMAN TWELVE, published 2021)
